# In paper PMC9030890:
# Biological target: recombinant stabilised complete spike protein (SARS-CoV-2), pre-fusion (SARS-CoV-2) (UniProt P0DTC2)
# Assay: affinity purification with mass spectrometry
substance,measurement,value
human serum albumin (from UniProt P02768 25-609) (natural protein),mean MALDI-ToF peak intensity of HSA eluted from the beads,1920 AU
